Assay results from PMC10907589, “CD8^+ T cell priming that is required for curative intratumorally anchored anti-4-1BB immunotherapy is constrained by Tregs” (Nature Communications, 2024).
Each block holds one binder with its values, some of them ahead of it.

Columns and labels:
murine 4-1BB [1] = target: T1, murine 4-1BB (murine, UniProt P20334 24-256); assay: FACS
T1 chain: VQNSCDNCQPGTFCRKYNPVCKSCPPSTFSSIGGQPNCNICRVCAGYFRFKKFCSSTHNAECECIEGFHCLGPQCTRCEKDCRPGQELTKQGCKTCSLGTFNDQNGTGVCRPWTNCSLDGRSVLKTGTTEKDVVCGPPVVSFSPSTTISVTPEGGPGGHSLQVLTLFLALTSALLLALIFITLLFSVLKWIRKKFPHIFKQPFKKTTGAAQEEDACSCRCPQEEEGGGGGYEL

rat collagen I = rat collagen I (rat, UniProt P02454 152-1207; P02466 86-1125); assay: ELISA
Sequence of rat collagen I (P02454 152-1207, chain 1 of 2): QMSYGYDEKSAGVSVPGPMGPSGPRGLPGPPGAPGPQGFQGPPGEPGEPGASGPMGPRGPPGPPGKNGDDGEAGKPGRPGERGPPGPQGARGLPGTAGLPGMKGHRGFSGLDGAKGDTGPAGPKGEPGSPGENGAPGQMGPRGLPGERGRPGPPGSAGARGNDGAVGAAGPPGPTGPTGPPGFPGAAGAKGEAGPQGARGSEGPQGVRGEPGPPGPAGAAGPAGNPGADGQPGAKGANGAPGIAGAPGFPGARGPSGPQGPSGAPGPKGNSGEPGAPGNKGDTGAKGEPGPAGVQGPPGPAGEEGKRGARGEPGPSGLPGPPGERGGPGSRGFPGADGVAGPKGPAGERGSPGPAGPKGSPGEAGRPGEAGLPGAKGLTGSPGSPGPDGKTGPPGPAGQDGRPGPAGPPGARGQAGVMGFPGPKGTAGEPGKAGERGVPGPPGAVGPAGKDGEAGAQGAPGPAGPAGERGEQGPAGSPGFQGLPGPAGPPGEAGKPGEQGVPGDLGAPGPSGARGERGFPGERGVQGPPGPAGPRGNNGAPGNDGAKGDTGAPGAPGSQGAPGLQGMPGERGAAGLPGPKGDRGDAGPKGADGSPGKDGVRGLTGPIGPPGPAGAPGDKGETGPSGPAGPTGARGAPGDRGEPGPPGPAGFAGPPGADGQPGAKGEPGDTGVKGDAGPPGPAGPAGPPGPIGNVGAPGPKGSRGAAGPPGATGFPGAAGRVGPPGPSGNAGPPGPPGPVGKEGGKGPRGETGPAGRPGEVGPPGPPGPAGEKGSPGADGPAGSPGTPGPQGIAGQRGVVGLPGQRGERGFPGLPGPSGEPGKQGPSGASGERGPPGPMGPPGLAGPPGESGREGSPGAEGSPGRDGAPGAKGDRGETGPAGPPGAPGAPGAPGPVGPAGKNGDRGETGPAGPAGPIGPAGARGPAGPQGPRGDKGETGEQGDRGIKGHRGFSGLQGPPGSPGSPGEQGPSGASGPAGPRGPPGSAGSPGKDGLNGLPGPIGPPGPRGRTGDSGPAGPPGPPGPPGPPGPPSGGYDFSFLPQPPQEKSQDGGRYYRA
Sequence of rat collagen I (P02466 86-1125, chain 2 of 2): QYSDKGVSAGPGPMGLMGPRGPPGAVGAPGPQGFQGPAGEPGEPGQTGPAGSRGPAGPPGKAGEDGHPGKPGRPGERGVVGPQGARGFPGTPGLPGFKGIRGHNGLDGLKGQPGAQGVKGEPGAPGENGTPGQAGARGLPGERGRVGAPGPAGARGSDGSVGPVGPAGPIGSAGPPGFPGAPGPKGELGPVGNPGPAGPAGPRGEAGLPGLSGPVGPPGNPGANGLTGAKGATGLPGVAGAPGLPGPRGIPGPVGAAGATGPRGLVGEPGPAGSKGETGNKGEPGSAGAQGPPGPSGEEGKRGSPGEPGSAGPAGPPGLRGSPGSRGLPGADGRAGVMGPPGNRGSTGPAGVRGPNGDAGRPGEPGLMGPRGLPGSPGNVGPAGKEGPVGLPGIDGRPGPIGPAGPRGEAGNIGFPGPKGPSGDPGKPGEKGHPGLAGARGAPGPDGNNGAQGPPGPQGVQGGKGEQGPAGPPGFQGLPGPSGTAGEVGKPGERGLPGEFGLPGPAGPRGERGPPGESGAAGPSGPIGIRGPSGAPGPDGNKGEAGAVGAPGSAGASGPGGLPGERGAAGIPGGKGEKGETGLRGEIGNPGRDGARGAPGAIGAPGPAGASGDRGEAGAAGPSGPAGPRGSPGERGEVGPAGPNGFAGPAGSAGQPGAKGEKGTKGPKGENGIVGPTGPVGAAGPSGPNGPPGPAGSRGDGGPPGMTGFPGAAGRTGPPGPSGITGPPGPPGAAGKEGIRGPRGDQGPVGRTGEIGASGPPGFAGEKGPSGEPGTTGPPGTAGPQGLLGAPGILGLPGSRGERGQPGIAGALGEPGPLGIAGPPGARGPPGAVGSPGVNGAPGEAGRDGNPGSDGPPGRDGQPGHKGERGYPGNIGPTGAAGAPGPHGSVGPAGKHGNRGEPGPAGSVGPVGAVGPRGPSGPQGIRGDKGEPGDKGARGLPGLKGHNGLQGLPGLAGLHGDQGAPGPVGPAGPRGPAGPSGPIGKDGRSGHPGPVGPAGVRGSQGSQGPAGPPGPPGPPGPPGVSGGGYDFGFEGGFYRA

murine 4-1BB [2] = target: T2, murine 4-1BB (Mus musculus, UniProt P20334); assay: flow cytometry on cells; FreeStyle 293-F cells transiently transfected with murine 4-1BB, titrated with antibody for 3 h at 4 °C; detected with ɑmIgG1-APC; conditions: one partner purified
T2 construct: 4-1BB (CD137, TNFRSF9), murine; gene from OriGene cloned into pIRES2 (GFP downstream of an IRES site, not fused); also called CD137; TNFRSF9; source: FreeStyle 293-F, transiently transfected (pIRES2 vector), on cells

Kd (murine 4-1BB [1]): 5.08 nM
Kd (rat collagen I): 25 nM
binding result (murine 4-1BB [2]): binds
B1: ɑ4-1BB-LAIR (ɑ4-1BB antibody clone LOB12.3 fused to the ectodomain of murine LAIR1) (antibody, V domains shown)
VH: DVQLVESGGGLVQPGRSLKLSCAASGFIFSYFDMAWVRQAPTKGLEWVASISPDGSIPYYRDSVKGRFTVSRENAKSSLYLQMDSLRSEDTATYYCARRSYGGYSEIDYWGQGVMVTVSS
VL: DIQMTQSPASLSASLEEIVTITCQASQDIGNWLAWYHQKPGKSPQLLIYGSTSLADGVPSRFSGSSSGSQYSLKISRLQVEDIGIYYCLQAYGAPWTFGGGTKLELK
notes: heavy chain variable region of ɑ4-1BB clone LOB12.3; murine IgG1 heavy chain constant region; flexible (G4S)3 linker, written out from the printed formula; Leukocyte Associated Immunoglobulin Like Receptor 1 (LAIR1), murine, ectodomain; light chain variable region of ɑ4-1BB clone LOB12.3; murine kappa light chain constant region; Chimeric murine IgG1/kappa antibody; LAIR1 is fused to the …

Kd (murine 4-1BB [1]): 4.12 nM
binding result (murine 4-1BB [2]): binds
B2: ɑ4-1BB antibody (clone LOB12.3), murine IgG1 chimera (antibody, V domains shown)
VH: B1 VH
VL: B1 VL
notes: heavy chain variable region of ɑ4-1BB clone LOB12.3, as in the heavy chain of m1; murine IgG1 heavy chain constant region; light chain variable region of ɑ4-1BB clone LOB12.3, as the light chain of m1; murine kappa light chain constant region; Chimeric murine IgG1/kappa antibody; light and heavy chain encoded in one cassette with a T2A peptide between them; also called α4-1BB; a4-1BB; source: …
